Results taken from the supplement of paper PMC9233669.
This sample holds only a part of the variants without activity.

Assays:
biotinyl-Leu-oxazolone = experiment: self-aminoacylation, catalytic enhancement (BLO) (fold over background); higher = more active; k-Seq, kA / k0A0; sequences stand for … in GGGAAUGGAUCCACAUCUACGAAUUC…UUCACUGCAGACUUGACGAAGCUG
In short: (§1)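 Mutagenized RNA pools with a 21-nt variable region (0.43 μM) reacted with each biotinyl-aminoacyl-oxazolone at 2–1250 μM. Reactions ran in 50 μL HEPES/NaCl/KCl/MgCl2/CaCl2 buffer with 5% acetonitrile, pH 6.9–7.0, for 90 minutes at room temperature. Streptavidin-captured RNA was quantified by triplicate qPCR and Illumina sequencing, and per-sequence fraction reacted was fit to a pseudo-first-order model with 1000 bootstraps. Catalytic enhancement is median kA divided by the uncatalyzed rate, the low-activity peak of a bimodal Gaussian fit.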

biotinyl-Val-oxazolone = experiment: self-aminoacylation, catalytic enhancement (BVO) (fold over background); higher = more active; k-Seq, kA / k0A0; sequences stand for … in GGGAAUGGAUCCACAUCUACGAAUUC…UUCACUGCAGACUUGACGAAGCUG
In short: as §1

biotinyl-Ile-oxazolone = experiment: self-aminoacylation, catalytic enhancement (BIO) (fold over background); higher = more active; k-Seq, kA / k0A0; sequences stand for … in GGGAAUGGAUCCACAUCUACGAAUUC…UUCACUGCAGACUUGACGAAGCUG
In short: as §1

biotinyl-Phe-oxazolone = experiment: self-aminoacylation, catalytic enhancement (BFO) (fold over background); higher = more active; k-Seq, kA / k0A0; sequences stand for … in GGGAAUGGAUCCACAUCUACGAAUUC…UUCACUGCAGACUUGACGAAGCUG
In short: as §1

biotinyl-Trp-oxazolone = experiment: self-aminoacylation, catalytic enhancement (BWO) (fold over background); higher = more active; k-Seq, kA / k0A0; sequences stand for … in GGGAAUGGAUCCACAUCUACGAAUUC…UUCACUGCAGACUUGACGAAGCUG
In short: as §1

biotinyl-Met-oxazolone = experiment: self-aminoacylation, catalytic enhancement (BMO) (fold over background); higher = more active; k-Seq, kA / k0A0; sequences stand for … in GGGAAUGGAUCCACAUCUACGAAUUC…UUCACUGCAGACUUGACGAAGCUG
In short: as §1

## AUUCACCUAGGUCACCGAGUG [Fam2.2 aminoacylation ribozyme variant]
biotinyl-Leu-oxazolone
  self-aminoacylation: 4.03
biotinyl-Val-oxazolone
  self-aminoacylation: 1.99
biotinyl-Ile-oxazolone
  self-aminoacylation: 2.11
biotinyl-Phe-oxazolone
  self-aminoacylation: 14.4
biotinyl-Trp-oxazolone
  self-aminoacylation: 3.47
biotinyl-Met-oxazolone
  self-aminoacylation: 3.57

## AUUCACCUAGGUCACCGGGCG [Fam2.2 aminoacylation ribozyme variant]
biotinyl-Leu-oxazolone
  self-aminoacylation: 4.7
biotinyl-Val-oxazolone
  self-aminoacylation: 4.43
biotinyl-Ile-oxazolone
  self-aminoacylation: 3.96
biotinyl-Phe-oxazolone
  self-aminoacylation: 11.3
biotinyl-Trp-oxazolone
  self-aminoacylation: 4.68
biotinyl-Met-oxazolone
  self-aminoacylation: 3.66

## AUUCACCUAGGUCAGCGGGUG [Fam2.2 aminoacylation ribozyme variant]
biotinyl-Leu-oxazolone
  self-aminoacylation: 5.95
biotinyl-Val-oxazolone
  self-aminoacylation: 3.2
biotinyl-Ile-oxazolone
  self-aminoacylation: 3.3
biotinyl-Phe-oxazolone
  self-aminoacylation: 29.1
biotinyl-Trp-oxazolone
  self-aminoacylation: 4.21
biotinyl-Met-oxazolone
  self-aminoacylation: 4.39

## AUUCACCUAGGUCAUAAGGUG [Fam2.2 aminoacylation ribozyme variant]
biotinyl-Leu-oxazolone
  self-aminoacylation: 3.48
biotinyl-Val-oxazolone
  self-aminoacylation: 1.69
biotinyl-Ile-oxazolone
  self-aminoacylation: 1.98
biotinyl-Phe-oxazolone
  self-aminoacylation: 6.42
biotinyl-Trp-oxazolone
  self-aminoacylation: 2.59
biotinyl-Met-oxazolone
  self-aminoacylation: 3.33

## AUUCACCUAGGUCAUAGGGUA [Fam2.2 aminoacylation ribozyme variant]
biotinyl-Leu-oxazolone
  self-aminoacylation: 0.856
biotinyl-Val-oxazolone
  self-aminoacylation: 1.16
biotinyl-Ile-oxazolone
  self-aminoacylation: 1.21
biotinyl-Phe-oxazolone
  self-aminoacylation: 0.412
biotinyl-Trp-oxazolone
  self-aminoacylation: 1.67
biotinyl-Met-oxazolone
  self-aminoacylation: 0.923

## AUUCACCUAGGUCAUCAGAUG [Fam2.2 aminoacylation ribozyme variant]
biotinyl-Leu-oxazolone
  self-aminoacylation: 0.928
biotinyl-Val-oxazolone
  self-aminoacylation: 0.872
biotinyl-Ile-oxazolone
  self-aminoacylation: 0.857
biotinyl-Phe-oxazolone
  self-aminoacylation: 0.715
biotinyl-Trp-oxazolone
  self-aminoacylation: 0.522
biotinyl-Met-oxazolone
  self-aminoacylation: 0.656

## AUUCACCUAGGUCAUCCGGUA [Fam2.2 aminoacylation ribozyme variant]
biotinyl-Leu-oxazolone
  self-aminoacylation: 2.3
biotinyl-Val-oxazolone
  self-aminoacylation: 2.3
biotinyl-Ile-oxazolone
  self-aminoacylation: 2.36
biotinyl-Phe-oxazolone
  self-aminoacylation: 6.52
biotinyl-Trp-oxazolone
  self-aminoacylation: 1.87
biotinyl-Met-oxazolone
  self-aminoacylation: 2.17

## AUUCACCUAGGUCAUCGCGUU [Fam2.2 aminoacylation ribozyme variant]
biotinyl-Leu-oxazolone
  self-aminoacylation: 3
biotinyl-Val-oxazolone
  self-aminoacylation: 2.39
biotinyl-Ile-oxazolone
  self-aminoacylation: 2.48
biotinyl-Phe-oxazolone
  self-aminoacylation: 12.7
biotinyl-Trp-oxazolone
  self-aminoacylation: 3.66
biotinyl-Met-oxazolone
  self-aminoacylation: 2.62

## AUUCACCUAGGUCAUCGCUUG [Fam2.2 aminoacylation ribozyme variant]
biotinyl-Leu-oxazolone
  self-aminoacylation: 1.26
biotinyl-Val-oxazolone
  self-aminoacylation: 1.12
biotinyl-Ile-oxazolone
  self-aminoacylation: 1.18
biotinyl-Phe-oxazolone
  self-aminoacylation: 4.33
biotinyl-Trp-oxazolone
  self-aminoacylation: 0.795
biotinyl-Met-oxazolone
  self-aminoacylation: 1.32

## AUUCACCUAGGUCAUCGGGCC [Fam2.2 aminoacylation ribozyme variant]
biotinyl-Leu-oxazolone
  self-aminoacylation: 4.1
biotinyl-Val-oxazolone
  self-aminoacylation: 2.97
biotinyl-Ile-oxazolone
  self-aminoacylation: 2.73
biotinyl-Phe-oxazolone
  self-aminoacylation: 14.7
biotinyl-Trp-oxazolone
  self-aminoacylation: 4.4
biotinyl-Met-oxazolone
  self-aminoacylation: 3.51

## AUUCACCUAGGUCAUCGGGGC [Fam2.2 aminoacylation ribozyme variant]
biotinyl-Leu-oxazolone
  self-aminoacylation: 11.5
biotinyl-Val-oxazolone
  self-aminoacylation: 4.81
biotinyl-Ile-oxazolone
  self-aminoacylation: 4.85
biotinyl-Phe-oxazolone
  self-aminoacylation: 20.7
biotinyl-Trp-oxazolone
  self-aminoacylation: 5.91
biotinyl-Met-oxazolone
  self-aminoacylation: 7.18

## AUUCACCUAGGUCAUCGGUAG [Fam2.2 aminoacylation ribozyme variant]
biotinyl-Leu-oxazolone
  self-aminoacylation: 0.606
biotinyl-Val-oxazolone
  self-aminoacylation: 0.836
biotinyl-Ile-oxazolone
  self-aminoacylation: 0.626
biotinyl-Phe-oxazolone
  self-aminoacylation: 0.533
biotinyl-Trp-oxazolone
  self-aminoacylation: 0.372
biotinyl-Met-oxazolone
  self-aminoacylation: 0.838

## AUUCACCUAGGUCAUCGGUUG [Fam2.2 aminoacylation ribozyme variant]
biotinyl-Leu-oxazolone
  self-aminoacylation: 1.11
biotinyl-Val-oxazolone
  self-aminoacylation: 1.03
biotinyl-Ile-oxazolone
  self-aminoacylation: 1
biotinyl-Phe-oxazolone
  self-aminoacylation: 1.02
biotinyl-Trp-oxazolone
  self-aminoacylation: 0.932
biotinyl-Met-oxazolone
  self-aminoacylation: 1.01

## AUUCACCUAGGUCAUCUAGUG [Fam2.2 aminoacylation ribozyme variant]
biotinyl-Leu-oxazolone
  self-aminoacylation: 5.99
biotinyl-Val-oxazolone
  self-aminoacylation: 2.78
biotinyl-Ile-oxazolone
  self-aminoacylation: 2.92
biotinyl-Phe-oxazolone
  self-aminoacylation: 18.7
biotinyl-Trp-oxazolone
  self-aminoacylation: 4.12
biotinyl-Met-oxazolone
  self-aminoacylation: 4.77

## AUUCACCUAGGUCAUGGAGUG [Fam2.2 aminoacylation ribozyme variant]
biotinyl-Leu-oxazolone
  self-aminoacylation: 4.09
biotinyl-Val-oxazolone
  self-aminoacylation: 2.49
biotinyl-Ile-oxazolone
  self-aminoacylation: 2.31
biotinyl-Phe-oxazolone
  self-aminoacylation: 7.91
biotinyl-Trp-oxazolone
  self-aminoacylation: 3.68
biotinyl-Met-oxazolone
  self-aminoacylation: 3.29

## AUUCACCUAGGUCAUGGGAUG [Fam2.2 aminoacylation ribozyme variant]
biotinyl-Leu-oxazolone
  self-aminoacylation: 0.611
biotinyl-Val-oxazolone
  self-aminoacylation: 0.657
biotinyl-Ile-oxazolone
  self-aminoacylation: 0.596
biotinyl-Phe-oxazolone
  self-aminoacylation: 0.397
biotinyl-Trp-oxazolone
  self-aminoacylation: 0.315
biotinyl-Met-oxazolone
  self-aminoacylation: 0.66

## AUUCACCUAGGUCAUGGUGUG [Fam2.2 aminoacylation ribozyme variant]
biotinyl-Leu-oxazolone
  self-aminoacylation: 0.994
biotinyl-Val-oxazolone
  self-aminoacylation: 0.932
biotinyl-Ile-oxazolone
  self-aminoacylation: 0.936
biotinyl-Phe-oxazolone
  self-aminoacylation: 0.397
biotinyl-Trp-oxazolone
  self-aminoacylation: 0.519
biotinyl-Met-oxazolone
  self-aminoacylation: 0.846

## AUUCACCUAGGUCAUGUGGUG [Fam2.2 aminoacylation ribozyme variant]
biotinyl-Leu-oxazolone
  self-aminoacylation: 3.91
biotinyl-Val-oxazolone
  self-aminoacylation: 2.1
biotinyl-Ile-oxazolone
  self-aminoacylation: 2.18
biotinyl-Phe-oxazolone
  self-aminoacylation: 20
biotinyl-Trp-oxazolone
  self-aminoacylation: 2.98
biotinyl-Met-oxazolone
  self-aminoacylation: 2.95

## AUUCACCUAGGUCAUUGGGAG [Fam2.2 aminoacylation ribozyme variant]
biotinyl-Leu-oxazolone
  self-aminoacylation: 1.07
biotinyl-Val-oxazolone
  self-aminoacylation: 0.991
biotinyl-Ile-oxazolone
  self-aminoacylation: 1.15
biotinyl-Phe-oxazolone
  self-aminoacylation: 0.946
biotinyl-Trp-oxazolone
  self-aminoacylation: 1.16
biotinyl-Met-oxazolone
  self-aminoacylation: 1.05

## AUUCACCUAGGUCCACGGGUG [Fam2.2 aminoacylation ribozyme variant]
biotinyl-Leu-oxazolone
  self-aminoacylation: 9.94
biotinyl-Val-oxazolone
  self-aminoacylation: 4.27
biotinyl-Ile-oxazolone
  self-aminoacylation: 3.85
biotinyl-Phe-oxazolone
  self-aminoacylation: 48.5
biotinyl-Trp-oxazolone
  self-aminoacylation: 6.34
biotinyl-Met-oxazolone
  self-aminoacylation: 7.25

## AUUCACCUAGGUCCUCGGAUG [Fam2.2 aminoacylation ribozyme variant]
biotinyl-Leu-oxazolone
  self-aminoacylation: 1.07
biotinyl-Val-oxazolone
  self-aminoacylation: 0.89
biotinyl-Ile-oxazolone
  self-aminoacylation: 0.964
biotinyl-Phe-oxazolone
  self-aminoacylation: 0.427
biotinyl-Trp-oxazolone
  self-aminoacylation: 0.587
biotinyl-Met-oxazolone
  self-aminoacylation: 0.966

## AUUCACCUAGGUCCUCGGGGG [Fam2.2 aminoacylation ribozyme variant]
biotinyl-Leu-oxazolone
  self-aminoacylation: 2.98
biotinyl-Val-oxazolone
  self-aminoacylation: 2.85
biotinyl-Ile-oxazolone
  self-aminoacylation: 2.8
biotinyl-Phe-oxazolone
  self-aminoacylation: 9.54
biotinyl-Trp-oxazolone
  self-aminoacylation: 2.42
biotinyl-Met-oxazolone
  self-aminoacylation: 2.98

## AUUCACCUAGGUCCUCGGGUG [Fam2.2 aminoacylation ribozyme variant]
biotinyl-Leu-oxazolone
  self-aminoacylation: 5.91
biotinyl-Val-oxazolone
  self-aminoacylation: 3.13
biotinyl-Ile-oxazolone
  self-aminoacylation: 3.08
biotinyl-Phe-oxazolone
  self-aminoacylation: 30.2
biotinyl-Trp-oxazolone
  self-aminoacylation: 4.22
biotinyl-Met-oxazolone
  self-aminoacylation: 4.59

## AUUCACCUAGGUCCUCGGGUU [Fam2.2 aminoacylation ribozyme variant]
biotinyl-Leu-oxazolone
  self-aminoacylation: 2.45
biotinyl-Val-oxazolone
  self-aminoacylation: 2.06
biotinyl-Ile-oxazolone
  self-aminoacylation: 1.8
biotinyl-Phe-oxazolone
  self-aminoacylation: 8.53
biotinyl-Trp-oxazolone
  self-aminoacylation: 2.48
biotinyl-Met-oxazolone
  self-aminoacylation: 2.22

## AUUCACCUAGGUCCUUGGGUG [Fam2.2 aminoacylation ribozyme variant]
biotinyl-Leu-oxazolone
  self-aminoacylation: 5.09
biotinyl-Val-oxazolone
  self-aminoacylation: 2.51
biotinyl-Ile-oxazolone
  self-aminoacylation: 2.7
biotinyl-Phe-oxazolone
  self-aminoacylation: 31.7
biotinyl-Trp-oxazolone
  self-aminoacylation: 3.42
biotinyl-Met-oxazolone
  self-aminoacylation: 4.11

## AUUCACCUAGGUCGUCGGCUG [Fam2.2 aminoacylation ribozyme variant]
biotinyl-Leu-oxazolone
  self-aminoacylation: 2.55
biotinyl-Val-oxazolone
  self-aminoacylation: 1.97
biotinyl-Ile-oxazolone
  self-aminoacylation: 1.62
biotinyl-Phe-oxazolone
  self-aminoacylation: 4.94
biotinyl-Trp-oxazolone
  self-aminoacylation: 1.63
biotinyl-Met-oxazolone
  self-aminoacylation: 2.16
